In patent US20110129459A1 (Chugai, published 2011):
Where two headings read alike, the source gives them in different places. Values belong to the binder of their own block, whether it stands above or below them.

Assays:
[1] = target: T1, rhNR10 (recombinant human NR10) (human, UniProt Q8NI17 20-519, limits assumed); assay: SPR, Biacore T100; antibody captured on Protein A, rhNR10 as analyte
T1 construct: also called IL-31 receptor; IL31RA
T1 sequence: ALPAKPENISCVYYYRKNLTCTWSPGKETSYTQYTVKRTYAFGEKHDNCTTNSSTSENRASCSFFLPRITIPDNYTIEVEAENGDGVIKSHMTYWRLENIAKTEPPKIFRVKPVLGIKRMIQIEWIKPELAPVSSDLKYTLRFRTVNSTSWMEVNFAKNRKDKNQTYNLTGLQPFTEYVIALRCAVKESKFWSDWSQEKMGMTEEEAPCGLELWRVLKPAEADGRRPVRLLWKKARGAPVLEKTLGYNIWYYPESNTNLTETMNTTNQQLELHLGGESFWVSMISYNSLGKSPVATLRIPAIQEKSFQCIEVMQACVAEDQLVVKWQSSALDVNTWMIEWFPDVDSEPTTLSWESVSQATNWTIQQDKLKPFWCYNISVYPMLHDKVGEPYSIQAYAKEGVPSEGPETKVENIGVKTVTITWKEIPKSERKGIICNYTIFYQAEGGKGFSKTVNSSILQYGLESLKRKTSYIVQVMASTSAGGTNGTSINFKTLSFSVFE
Protocol: (§1) Kinetic analysis of the antigen-antibody reaction was carried out using Biacore T100 (GE Healthcare Biosciences). The antigen-antibody interaction was measured by immobilizing rec-Protein A (hereinafter Protein A) (ZYMED) onto a sensor chip, capturing an antibody on the immobilized Protein A, and then reacting the antigen as an analyte. Various concentrations of rhNR10 were used as the antigen. The kinetic parameters, association rate constant kₐ (1/Ms) and dissociation rate constant kd (1/s), were calculated from the sensorgrams obtained by the measurement. Then, KD (M) was determined based on the rate constants. Each parameter was determined using Biacore T100 Evaluation Software version 1.1 (GE Healthcare Biosciences).
(§2) The running buffer used was HBS-EP+. Each antibody was prepared at 0.25 μg/ml, or prepared so that about 100 RU would bind to Protein A. rhNR10 used as an analyte was prepared at 0, 38.5, 77.0, and 154 nM, or at 0, 19.25, and 77.01 nM using HBS-EP+. In the measurement, first, the antibody solution was captured on Protein A, and an analyte solution was reacted at a flow rate of 20 μL/min for three minutes. Then, the solution was switched to HBS-EP+, and the dissociation phase was measured for five minutes. After measurement of the dissociation phase, the sensor chip was regenerated by washing with 10 mM glycine-HCl (pH 1.5). The obtained sensorgrams were kinetically analyzed using the Biacore-specific data analysis software, Biacore T100 Evaluation Software Version 1.1.

[2] = target: T1, rhNR10 (recombinant human NR10); assay: as above; remark: listed apart in the source
Protocol: as §1, §2

[3] = target: T1, rhNR10 (recombinant human NR10); assay: as above; remark: listed apart in the source
Protocol: as §1, §2

[4] = target: T2, soluble human FcRn (FcRn extracellular domain / beta2-microglobulin complex) (human, UniProt P55899 24-290; P61769 21-119); assay: SPR, Biacore 3000; antibody captured on chip, soluble human FcRn as analyte, steady state affinity, pH 6.0
T2 construct: The expression constructs contain the signal regions (FcRn Met1-Leu290; beta2-microglobulin Met1-Met119); also called hFcRn
Protocol: The binding to human FcRn was assessed using Biacore 3000. An antibody was bound to Protein L or rabbit anti-human IgG Kappa chain antibody immobilized onto a sensor chip, human FcRn was added as an analyte for interaction with the antibody, and the affinity (KD) was calculated from the amount of bound human FcRn. Specifically, Protein L was immobilized onto sensor chip CM5 (BIACORE) by the amine coupling method using 50 mM Na-phosphate buffer (pH 6.0) containing 150 mM NaCl as the running buffer. Then, an antibody was diluted with the running buffer containing 0.02% Tween20, and injected and allowed to bind to the chip. Human FcRn was then injected to assess the binding activity of the antibody to the human FcRn.
The affinity was calculated using BIAevaluation software. The obtained sensorgram was used to calculate the amount of hFcRn bound to the antibody immediately before the end of human FcRn injection. This was fitted by the steady state affinity method to calculate the affinity of human FcRn for the antibody.

[5] = target: T1, rhNR10 (recombinant human NR10); assay: SPR, Biacore T100; antibody captured on Protein A, rhNR10 as analyte; remark: listed apart in the source
Protocol: as §1, §2

[6] = target: T1, rhNR10 (recombinant human NR10); assay: as above; remark: listed apart in the source
Protocol: as §1, §2

Kd [1]: 4.8 nM
koff [1]: 0.00087 s⁻¹
kon [1]: 180000 M⁻¹ s⁻¹
Kd [2]: 4.2 nM
koff [2]: 0.00088 s⁻¹
kon [2]: 210000 M⁻¹ s⁻¹
Kd [3]: 4.8 nM
koff [3]: 0.00069 s⁻¹
kon [3]: 140000 M⁻¹ s⁻¹
Kd [4]: 910 nM
Kd [5]: 4.8 nM
koff [5]: 0.00078 s⁻¹
kon [5]: 160000 M⁻¹ s⁻¹
B1: H0L0-M58 (antibody)
heavy: QVQLVQSGAEVKKPGASVKVSCKASGYTFTGYIMNWVRQAPGQGLEWMGLINPYNGGTSYNQKFKGRVTITADESTSTAYMELSSLRSEDTAVYYCARDGYDDGPYTMDYWGQGTLVTVSSASTKGPSVFPLAPSSKSTSGGTAALGCLVKDYFPEPVTVSWNSGALTSGVHTFPAVLQSSGLYSLSSVVTVPSSNFGTQTYTCNVDHKPSNTKVDKTVERKSCVECPPCPAPPVAGPSVFLFPPKPKDTLMISRTPEVTCVVVDVSQEDPEVQFNWYVDGVEVHNAKTKPREEQFNSTFRVVSVLTVVHQDWLNGKEYKCKVSNKGLPAPIEKTISKTKGQPREPQVYTLPPSQEEMTKNQVSLTCLVKGFYPSDIAVEWESNGQPENNYKTTPPMLDSDGSFFLYSKLTVDKSRWQEGNVFSCSVMHEALHNHYTQKSLSLSP
light: DIQMTQSPSSLSASVGDRVTITCRTSENIYSFLAWYQQKPGKAPKLLIYNAKTLAKGVPSRFSGSGSGTDFTLTISSLQPEDFATYYCQHHYESPLTFGGGTKVEIKRTVAAPSVFIFPPSDEQLKSGTASVVCLLNNFYPREAKVQWKVDNALQSGNSQESVTEQDSKDSTYSLSSTLTLSKADYEKHKVYACEVTHQGLSSPVTKSFNRGEC
notes: also called H0L0 (H chain, H0-M58)

Kd [4]: 1070 nM
B2: H0L0-IgG1 (antibody)
heavy: not shown
light: DIQMTQSPSSLSASVGDRVTITCRTSENIYSFLAWYQQKPGKAPKLLIYNAKTLAKGVPSRFSGSGSGTDFTLTISSLQPEDFATYYCQHHYESPLTFGGGTKVEIKRTVAAPSVFIFPPSDEQLKSGTASVVCLLNNFYPREAKVQWKVDNALQSGNSQESVTEQDSKDSTYSLSSTLTLSKADYEKHKVYACEVTHQGLSSPVTKSFNRGEC

Kd [4]: 1170 nM
fold binding activity relative to huPM1-IgG1 [4]: ~1.4 fold
B3: huPM1-M58 (humanized anti-IL-6 receptor antibody with constant region M58) (antibody)
heavy: QVQLQESGPGLVRPSQTLSLTCTVSGYSITSDHAWSWVRQPPGRGLEWIGYISYSGITTYNPSLKSRVTMLRDTSKNQFSLRLSSVTAADTAVYYCARSLARTTAMDYWGQGSLVTVSSASTKGPSVFPLAPSSKSTSGGTAALGCLVKDYFPEPVTVSWNSGALTSGVHTFPAVLQSSGLYSLSSVVTVPSSNFGTQTYTCNVDHKPSNTKVDKTVERKSCVECPPCPAPPVAGPSVFLFPPKPKDTLMISRTPEVTCVVVDVSQEDPEVQFNWYVDGVEVHNAKTKPREEQFNSTFRVVSVLTVVHQDWLNGKEYKCKVSNKGLPAPIEKTISKTKGQPREPQVYTLPPSQEEMTKNQVSLTCLVKGFYPSDIAVEWESNGQPENNYKTTPPMLDSDGSFFLYSKLTVDKSRWQEGNVFSCSVMHEALHNHYTQKSLSLSP
light: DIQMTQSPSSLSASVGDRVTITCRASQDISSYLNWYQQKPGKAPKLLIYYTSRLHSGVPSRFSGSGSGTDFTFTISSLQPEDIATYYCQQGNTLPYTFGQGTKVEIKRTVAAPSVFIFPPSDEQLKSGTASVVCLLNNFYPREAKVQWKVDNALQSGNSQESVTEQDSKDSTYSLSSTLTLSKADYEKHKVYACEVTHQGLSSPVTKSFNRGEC

Kd [6]: 0.5 nM
koff [6]: 0.00029 s⁻¹
kon [6]: 580000 M⁻¹ s⁻¹
B4: Ha401La402 (Ha401-SKSC / La402) (antibody, V domains shown)
VH: QVQLVQSGAEVKKPGASVKVSCKASGYTFTGYVINWVRQAPGQGLEWMGLINPYNGGTDYNQKFKGRVTITADESTSTAYMELSSLRSEDTAVYYCARDGYDDGPYTMDYWGQGTLVTVSS
VL: DIQMTQSPSSLSASVGDRVTITCQTSENIYRFVAWYQQKPGKAPKLLIYNAKTLAKGVPSRFSGSGSGTDFTLTISSLQPEDFATYYCQHHYDSPLTFGGGTKVEIKR

fold affinity relative to H0L0 [1]: ~2 fold
Kd [5]: 2 nM
koff [5]: 0.00074 s⁻¹
kon [5]: 380000 M⁻¹ s⁻¹
B5: H0L12 (H0-M58 / L12) (antibody, V domains shown)
VH: QVQLVQSGAEVKKPGASVKVSCKASGYTFTGYIMNWVRQAPGQGLEWMGLINPYNGGTSYNQKFKGRVTITADESTSTAYMELSSLRSEDTAVYYCARDGYDDGPYTMDYWGQGTLVTVSS
VL: DIQMTQSPSSLSASVGDRVTITCQTSEDIYSFVAWYQQKPGKAPKLLIYNAQTEAQGVPSRFSGSGSGTDFTLTISSLQPEDFATYYCQHHYDSPLTFGGGTKVEIKR

Kd [5]: 2.1 nM
koff [5]: 0.00081 s⁻¹
kon [5]: 390000 M⁻¹ s⁻¹
B6: H0L17 (H0-M58 / L17) (antibody, V domains shown)
VH: QVQLVQSGAEVKKPGASVKVSCKASGYTFTGYIMNWVRQAPGQGLEWMGLINPYNGGTSYNQKFKGRVTITADESTSTAYMELSSLRSEDTAVYYCARDGYDDGPYTMDYWGQGTLVTVSS
VL: DIQMTQSPSSLSASVGDRVTITCQASEDIYSFVAWYQQKPGKAPKLLIYNAQTEAQGVPSRFSGSGSGTDFTLTISSLQPEDFATYYCQHHYDSPLTFGGGTKVEIKR

Kd [3]: 0.62 nM
koff [3]: 0.00026 s⁻¹
kon [3]: 430000 M⁻¹ s⁻¹
B7: H17L11 (H17-M58 / L11) (antibody, V domains shown)
VH: QVQLVQSGAEVKKPGASVKVSCKASGYTFTGYVLNWVRQAPGQGLEWMGLINPYNGGTDYNPQFQDRVTITADESTSTAYMELSSLRSEDTAVYYCARDGYDDGPYTMDYWGQGTLVTVSS
VL: DIQMTQSPSSLSASVGDRVTITCQTSEDIYRFVAWYQQKPGKAPKLLIYNAQTEAQGVPSRFSGSGSGTDFTLTISSLQPEDFATYYCQHHYDSPLTFGGGTKVEIKR
